The record followed here is US8642284B1, “Methods for identifying agents that alter NAD-dependent deacetylation activity of a SIR2 protein” (Massachusetts Institute of Technology, priority 1999, dated 2014).

Substitutions are numbered along the chain they refer to. In names and notes the source's numbering stands.

To fix the notation:
B1: F265A: recombinant mSir2α core domain mutant, residue changed to alanine (protein)
chain: MADEVALALQAAGSPSAAAAMEAASQPADEPLRKRPRRDGPGLGRSPGEPSAAVAPAAAGCEAASAAAPAALWREAAGAAASAEREAPATAVAGDGDNGSGLRREPRAADDFDDDEGEEEDEAAAAAAAAAIGYRDNLLLTDGLLTNGFHSCESDDDDRTSHASSSDWTPRPRIGPYTFVQQHLMIGTDPRTILKDLLPETIPPPELDDMTLWQIVINILSEPPKRKKRKDINTIEDAVKLLQECKKIIVLTGAGVSVSCGIPDARSRDGIYARLAVDFPDLPDPQAMFDIEYFRKDPRPFFKFAKEIYPGQFQPSLCHKFIALSDKEGKLLRNYTQNIDTLEQVAGIQRILQCHGSFATASCLICKYKVDCEAVRGDIFNQVVPRCPRCPADEPLAIMKPEIVFFGENLPEQFHRAMKYDKDEVDLLIVIGSSLKVRPVALIPSSIPHEVPQILINREPLPHLHFDVELLGDCDVIINELCHRLGGEYAKLCCNPVKLSEITEKPPRPQKELVHLSELPPTPLHISEDSSSPERTVPQDSSVIATLVDQATNNNVNDLEVSESSCVEEKPQEVQTSRNVENINVENPDFKAVGSSTADKNERTSVAETVRKCWPNRLAKEQISKRLEGNQYLFVPPNRYIFHGAEVYSDSEDDVLSSSSCGSNSDSGTCQSPSLEEPLEDESEIEEFYNGLEDDTERPECAGGSGFGADGGDQEVVNEAIATRQELTDVNYPSDKS
modifications: left off: small tags and cut ends
notes: recombinant mSir2α core domain mutant, residue changed to alanine
B2: G270A: recombinant mSir2α core domain mutant, residue changed to alanine (protein)
chain: B1 chain with A265F, G270A
modifications: left off: small tags and cut ends
notes: as for B1
B3: H355A: recombinant mSir2α core domain mutant, residue changed to alanine (protein)
chain: B1 chain with A265F, H355A
modifications: left off: small tags and cut ends
notes: as for B1
B4: R266A: recombinant mSir2α core domain mutant, residue changed to alanine (protein)
chain: B1 chain with A265F, R266A
modifications: left off: small tags and cut ends
notes: as for B1
B5: T336A: recombinant mSir2α core domain mutant, residue changed to alanine (protein)
chain: B1 chain with A265F, T336A
modifications: left off: small tags and cut ends
notes: as for B1

The test system of the test is histone H2B. Put plainly: ADP-ribosylation activity of wild type and mutant recombinant mSir2α proteins on histones. The format is biochemical, calf. Particulars: 10 μg recombinant protein; H2B radioactivity, wild type = 100%. On the procedure: Site-directed mutagenesis of mSIR2α core domain was performed with the GeneEditor™ system (Promega, Madison, Wis.) according to the procedure provided by the manufacturer. The mutant recombinant proteins were prepared in the same way as described above.
The typical reaction was performed in 50 or 100 μl of the buffer containing 5 mM Tris-HCl [pH8.0 or 9.0], 4 mM MgCl2, 0.2 mM DTT, 1 μM cold β-NAD^+ (SIGMA®) and 8 μCi nicotinamide adenine dinucleotide 5′[α-^32P]triphosphate (NAD) as a donor of ADP-ribose (˜1000 Ci/mmol, Amersham Pharmacia Biotech). To check the sensitivity to poly- or mono-ADP-ribosylation inhibitors, 3-aminobenzamide (ICN Pharmaceuticals, CA), benzamide, novobiocin and coumermycin A1 (SIGMA®) were added to the reactions prior to adding Sir2 proteins, respectively. The wild type or mutant recombinant proteins (0.5-1 μg for ySir2p and 10 μg of mSir2α) were added with 4 μg of each histone purchased from Roche Molecular Biochemicals (Indianapolis, Ind.). For the peptide experiments, 5-10 μg of unacetylated or acetylated N-terminal tail peptides (amino acids 1-20) of H3 and H4 purchased from Upstate Biotechnology™ (Lake Placid, N.Y.) were used as substrates of the yeast and mouse Sir2 recombinant proteins.
To analyze histone modification, 25 μl of 100% trichloroacetic acid (TCA) solution was mixed to the reaction mixture and left on ice for 15 min. The protein precipitates were centrifuged at 4° C. and washed with 5 or 20% TCA solution twice. The pellets were dissolved in 15 μl of Leammli's sample buffer and boiled for 1.5 min. The proteins were electrophoresed in a 10-20% gradient SDS-PAGE gel. The gel was stained with COOMASSIE® Brilliant Blue R-250 (GibcoBRL Life Technologies™, Frederick, Md.) to check equal loading of histones, dried, and exposed to KODAK® X-OMAT film.
Aliquots of recombinant protein (10 μg) of the wild type recombinant mSir2α (WT), the pET control pET, and the mutant proteins (G253A, G255A, S257A, I262A, F265A, R266A, G270A, P285A, T336A, H355A) were incubated with H2B or H3. […] All of the mutations of highly conserved residues dramatically affected the mono-ADP-ribosylation activity of mSir2α (FIG. 6B). The results were similar using H2B or H3.
The radioactivity of H2B modified by the wild type is assigned to 100% and other data were normalized according to the wild type activity and blots quantitated by Phosphorimaging. The averages and the standard deviations were calculated from two independent experiments. In the core domain of ySir2p, mutations on highly conserved residues also affected the mono-ADP-ribosylation activity. Therefore, the core domain of Sir2 proteins contain the catalytic activity of mono-ADP-ribosylation and the evolutionarily conserved residues in the core domain are essential for this activity.
For B1, the “mono-ADP-ribosylation activity compared to the wild type activity” value is listed as “completely abolished the activity”.
The result for B2 reads “completely abolished the activity”; that for B3, “completely abolished the activity”; that for B4, 18%.
The result for B5 reads “completely abolished the activity”.
